From US20020147129A1
Where no end group is shown, it is not given here. [ ]: non-standard residue; d: D form. Nle = CCCC[C@H](N)C(=O)O

How the values were obtained:
[1] = biological target: embryonic chicken AT4 receptor (chicken); test: competition for [125I]Ang IV binding, E13 chicken chorioallantoic membranes
[2] = biological target: embryonic chicken Ang II receptor (chicken); test: competition for 125I[Sar1Ile8]Ang II binding, E13 chicken chorioallantoic membranes
Sequence of embryonic chicken Ang II receptor (chicken) (P79785 whole entry): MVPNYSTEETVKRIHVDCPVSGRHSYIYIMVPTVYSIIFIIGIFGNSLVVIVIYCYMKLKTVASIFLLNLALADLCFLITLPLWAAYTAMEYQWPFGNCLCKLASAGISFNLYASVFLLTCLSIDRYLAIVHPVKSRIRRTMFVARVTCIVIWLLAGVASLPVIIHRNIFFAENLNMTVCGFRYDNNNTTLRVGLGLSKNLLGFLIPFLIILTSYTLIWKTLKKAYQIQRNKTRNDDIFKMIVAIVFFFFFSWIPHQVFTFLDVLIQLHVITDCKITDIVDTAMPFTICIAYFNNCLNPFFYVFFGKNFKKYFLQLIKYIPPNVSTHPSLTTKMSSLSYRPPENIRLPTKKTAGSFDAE

Sequence of embryonic chicken AT4 receptor (chicken) (F1NNE7 entry or part of it): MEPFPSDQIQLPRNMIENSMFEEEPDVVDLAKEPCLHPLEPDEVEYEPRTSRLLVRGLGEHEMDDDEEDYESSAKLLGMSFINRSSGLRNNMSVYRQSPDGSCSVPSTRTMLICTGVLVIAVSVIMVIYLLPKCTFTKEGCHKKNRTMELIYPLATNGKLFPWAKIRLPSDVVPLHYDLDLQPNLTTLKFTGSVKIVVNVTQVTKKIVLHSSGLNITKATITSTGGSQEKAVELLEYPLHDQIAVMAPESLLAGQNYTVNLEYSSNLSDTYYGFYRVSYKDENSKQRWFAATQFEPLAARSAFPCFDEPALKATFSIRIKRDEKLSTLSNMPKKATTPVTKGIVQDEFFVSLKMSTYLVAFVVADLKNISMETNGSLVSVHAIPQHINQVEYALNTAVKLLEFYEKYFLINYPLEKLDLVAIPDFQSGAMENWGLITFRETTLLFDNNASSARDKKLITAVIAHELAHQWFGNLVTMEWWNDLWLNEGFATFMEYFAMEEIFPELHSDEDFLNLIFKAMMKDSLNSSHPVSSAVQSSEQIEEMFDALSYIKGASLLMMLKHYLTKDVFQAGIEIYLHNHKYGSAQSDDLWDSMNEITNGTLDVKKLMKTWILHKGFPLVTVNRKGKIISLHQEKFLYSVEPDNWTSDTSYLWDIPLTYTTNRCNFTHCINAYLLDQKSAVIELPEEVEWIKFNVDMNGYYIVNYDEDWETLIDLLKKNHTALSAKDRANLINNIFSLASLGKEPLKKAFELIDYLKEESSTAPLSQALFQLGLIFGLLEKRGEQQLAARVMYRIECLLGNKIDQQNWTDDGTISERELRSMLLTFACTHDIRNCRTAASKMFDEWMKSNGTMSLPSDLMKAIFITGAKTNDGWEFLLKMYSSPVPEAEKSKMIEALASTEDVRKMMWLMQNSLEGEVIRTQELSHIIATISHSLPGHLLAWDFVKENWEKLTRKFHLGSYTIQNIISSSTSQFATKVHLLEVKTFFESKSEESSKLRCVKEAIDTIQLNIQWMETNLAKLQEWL

[Nle]YIHPF [Nle^1-AIV] showed an IC50 [1] of 0.043 µM and an IC50 [2] of 8 µM.
